Laboratory results as given in article PMC9641999, “Cryo-EM samples of gas-phase purified protein assemblies using native electrospray ion-beam deposition” (Faraday discussions, 2022).

Target: the molecule itself
Assay: native MS; non-activating native electrospray on a Q Exactive UHMR; 200 mM ammonium acetate pH 6.9; 5 μM ADH, 10 μM β-gal, 8 μM ferritin, 5 μM GroEL (concentrations of the most abundant oligomers)

B1: alcohol dehydrogenase (enzyme)
chain: MSIPETQKGVIFYESHGKLEYKDIPVPKPKANELLINVKYSGVCHTDLHAWHGDWPLPVKLPLVGGHEGAGVVVGMGENVKGWKIGDYAGIKWLNGSCMACEYCELGNESNCPHADLSGYTHDGSFQQYATADAVQAAHIPQGTDLAQVAPILCAGITVYKALKSANLMAGHWVAISGAAGGLGSLAVQYAKAMGYRVLGIDGGEGKEELFRSIGGEVFIDFTKEKDIVGAVLKATDGGAHGVINVSVSEAAIEASTRYVRANGTTVLVGMPAGAKCCSDVFNQVVKSISIVGSYVGNRADTREALDFFARGLVKSPIKVVGLSTLPEIYEKMEKGQIVGRYVVDTSK
notes: alcohol dehydrogenase (ADH), Sigma Aldrich A7011-15KU; native tetramer selected by mass; also called ADH; source: bought: Sigma Aldrich (A7011-15KU), used without further purification; desalted into 200 mM ammonium acetate
stoichiometry N: 4

B2: apoferritin (natural protein, UniProt P02791 1-175, looked up)
chain: MSSQIRQNYSTEVEAAVNRLVNLYLRASYTYLSLGFYFDRDDVALEGVCHFFRELAEEKREGAERLLKMQNQRGGRALFQDLQKPSQDEWGTTLDAMKAAIVLEKSLNQALLDLHALGSAQADPHLCDFLESHFLDEEVKLIKKMGDHLTNIQRLVGSQAGLGEYLFERLTLKHD
notes: ferritin, Sigma Aldrich F4503-25MG; The sample held both apo- and holoferritin, and the 24-mer of apoferritin was selected by mass; PDB 7A6A, used for comparison of shapes, may be a recombinant ferritin of another species or chain; also called apo/holo-ferritin; source: bought: Sigma Aldrich (F4503-25MG), saline stock solution, used without further purification; desalted into 200 mM ammonium …
stoichiometry N: 24
